Changes are numbered by the printed parent chain. Names may count otherwise. Values belong to the binder of their own block, whether it stands above or below them.
Experiments:
[1] = target: T1, GPRC5D on multiple myeloma cells (human, UniProt Q9NZD1 1-345); assay: FACS on MM.1S cells
T1 construct: whole, on cells; Endogenous GPRC5D on multiple myeloma cell lines; also called G-protein coupled receptor family C group 5 member D; MM.1S, MOLP-8, L363, RPMI8226 cells

[2] = target: T2, CD3 on T cells / Jurkat cells (human, UniProt P07766 23-207; P04234 22-171; P09693 23-182); assay: FACS on Jurkat cells
T2 construct: whole, on cells; Native CD3 complex on CD3+ T cells isolated from normal donors or on Jurkat cells; also called human CD3; CD3+ T cells
T2 sequence (P07766 23-207, chain 1 of 3): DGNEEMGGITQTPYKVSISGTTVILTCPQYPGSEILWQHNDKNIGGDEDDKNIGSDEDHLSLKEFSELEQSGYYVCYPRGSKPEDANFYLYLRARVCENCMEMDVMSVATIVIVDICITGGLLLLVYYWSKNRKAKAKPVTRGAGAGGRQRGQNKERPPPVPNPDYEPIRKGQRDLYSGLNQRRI
T2 sequence (P04234 22-171, chain 2 of 3): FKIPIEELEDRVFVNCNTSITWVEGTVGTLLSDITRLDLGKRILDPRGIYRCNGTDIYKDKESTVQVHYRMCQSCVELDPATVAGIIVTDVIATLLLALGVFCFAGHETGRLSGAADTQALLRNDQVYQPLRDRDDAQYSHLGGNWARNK
T2 sequence (P09693 23-182, chain 3 of 3): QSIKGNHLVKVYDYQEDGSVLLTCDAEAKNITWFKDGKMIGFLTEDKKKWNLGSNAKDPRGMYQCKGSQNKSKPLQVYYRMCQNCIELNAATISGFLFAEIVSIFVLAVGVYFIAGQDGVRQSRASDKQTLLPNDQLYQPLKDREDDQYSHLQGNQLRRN

GPRC5D on MM.1S cells [3] = target: T3, GPRC5D on MM.1S cells (human, UniProt Q9NZD1 1-345); assay: FACS on MM.1S cells
T3 construct: whole, on cells; MM.1S is called a GPRC5D positive expressed cell line and human multiple myeloma cells; also called G-protein coupled receptor family C group 5 member D
T3 sequence (Q9NZD1 whole entry): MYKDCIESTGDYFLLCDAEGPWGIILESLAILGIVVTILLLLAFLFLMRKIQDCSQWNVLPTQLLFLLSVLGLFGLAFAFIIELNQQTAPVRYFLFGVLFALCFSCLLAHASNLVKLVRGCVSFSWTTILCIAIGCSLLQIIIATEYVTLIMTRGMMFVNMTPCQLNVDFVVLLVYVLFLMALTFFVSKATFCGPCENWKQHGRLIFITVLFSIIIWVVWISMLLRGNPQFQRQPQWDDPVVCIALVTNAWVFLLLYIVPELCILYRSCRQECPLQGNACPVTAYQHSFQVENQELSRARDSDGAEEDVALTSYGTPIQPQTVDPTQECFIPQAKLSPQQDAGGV
Experimental: To evaluate the binding affinity of the generated chimeric bispecific antibody to T cells, the isolated CD3⁺ T cells were stained by antibodies and the binding affinity was determined by FACS analysis. The protocol of FACS analysis is described as follows: [0785] (a) CD3⁺ T cells were isolated from normal donors. [0786] (b) The isolated CD3⁺ T cells were washed by Staining Buffer (PBS+1% BSA) in round bottom 96-well plate. […] (c) Antibody dilutions were added to each well and mixed with the CD3+ T cells, incubated at 4 degrees for 1 hour. […] (d) Cells were spined at 300 g for 3 minutes, then the supernatants were discarded. [0789] (e) Cells were washed with Staining Buffer. [0790] (f) Step (d) was repeated, and the cells were incubated with secondary antibody in Staining Buffer for 0.5 hours at 4 degrees. [0791] (g) After incubation, step (d)-(e) were repeated. [0792] (h) Cells were resuspended in Staining Buffer and fluorescence signals were recorded by flow cytometry.
The binding affinities of the generated humanized Fab-scFv-Fab bispecific antibodies to MM.1S were evaluated by FACS analysis. The protocol for FACS analysis is identical to that described in Example 1.2, except that MM.1S were used in this example.

GPRC5D on MM.1S cells [4] = target: T3, GPRC5D on MM.1S cells; assay: cell-based or functional assay
GPRC5D on MM.1S cells [5] = target: T3, GPRC5D on MM.1S cells; assay: cell-based or functional assay; remark: listed apart in the source

T1 sequence (Q9NZD1 whole entry): as above

B2: Bis-108+147-S32T.L (bispecific antibody, V domains shown)
VH 1: EVQLVQSGAEVKKPGASVKVSCKASGYTFTSYVIHWVRQAPGQGLEWMGYFNPYNDGTKYNEEFKGRVTLTSDKSTSTAYMELRSLRSDDTAVYYCARGGVRRYFDVWGQGTTVTVSS
VL 1: DIQMTQSPSSLSASVGDRVTITCRASQDIGSNLNWLQQKPGKAIKRLIYATFGLDSGVPSRFSGSRSGTDFTLTISSLQPEDFATYYCQQYASFPYTFGGGTKVEIK
VH 2: EVQLVQSGAEVKKPGSSVKVSCKASGYTFTSYWMHWVRQAPGQCLEWMGNINPSSGATNYNEKFKSRVTLTVDKSTSTAYMELSSLRSEDTAVYYCARDRSSQYYFDYWGQGTTVTVSS
VL 2: DIVMTQSPDSLAVSLGERATINCKSSQSLLNTRSRKNYLAWYQQKPGQPPKLLIYWASTRESGVPDRFSGSGSGTDFTLTISSLQAEDVAVYYCTQSYTLRTFGCGTKVEIK
notes: Fab-scFv-Fab (2+1): first VH/VL = anti-GPRC5D Fabs, second VH/VL = anti-CD3 scFv
binding result [1]: binds
binding result [2]: binds

B3: Bis-108+ch147 (bispecific antibody, V domains shown)
VH 1: B2 VH 1
VL 1: B2 VL 1
VH 2: QVQLQQPGTELVKPGTSVKLSCKASGYTFTSYWMHWVKQRPGQCLEWIGNINPSNGATNYNEKFKSKATLTVDKSSSTAYMQLSSLTSEDSAVYYCARDRSSQYYFDYWGQGTTLTVSS
VL 2: DIVMSQSPSSLAVSAGEKVTMSCKSSQSLLNSRSRKNYLAWYQQKPGQSPKLLIYWASTRESGVPDRFTGSGSGTDFTLTISSVQAEDLAVYYCTQSYTLRTFGCGTKLEIK
notes: Fab-scFv-Fab (2+1): two humanized anti-GPRC5D Fabs (first VH/VL) and one anti-CD3 scFv (second VH/VL, parental clone 147E11E2)
binding result [1]: binds
binding result [2]: binds

B5: Bis-108+147-R33A.L (bispecific antibody, V domains shown)
VH 1: B2 VH 1
VL 1: B2 VL 1
VH 2: B2 VH 2
VL 2: B2 VL 2 with T32S, R33A
notes: as for B2
binding result [1]: binds
binding result [2]: binds

B7: Bis-108+147-K36R.L (bispecific antibody, V domains shown)
VH 1: B2 VH 1
VL 1: B2 VL 1
VH 2: B2 VH 2
VL 2: B2 VL 2 with T32S, K36R
notes: as for B2
binding result [1]: binds
binding result [2]: binds

B8: Bis-108+147-N37K.L (bispecific antibody, V domains shown)
VH 1: B2 VH 1
VL 1: B2 VL 1
VH 2: B2 VH 2
VL 2: B2 VL 2 with T32S, N37K
notes: as for B2
binding result [1]: binds
binding result [2]: binds

B9: Bis-40E9-L2H16 (bispecific antibody)
VH: B2 VH 1
VL: B2 VL 1
scFv: EVQLVQSGAEVKKPGSSVKVSCKASGYTFSDYVIHWVRQAPGQCLEWMGYINPYNDVIKYNEKFKGRVTLTSDKSTSTAYMELSSLRSEDTAVYYCARDSYYSYDGFAYWGQGTLVTVSSGGGGSGGGGSGGGGSGGGGSEIVLTQSPDFQSVTPKEKVTITCSASSSVSYMHWYQQKPDQSPKRLIYDTSKLASGVPSRFSGSGSGTDFTLTINSLEAEDAATYYCQQWSSNPPTFGCGTKVEIK
notes: L234A/L235A
binding result [1]: binds
binding result [2]: binds

B11: Bis-40E9-L2H11 (bispecific antibody)
VH: B2 VH 1
VL: B2 VL 1
scFv: B9 scFv with D31S, D105R, G106A
notes: L234A/L235A
binding result [1]: binds
binding result [2]: binds

B16: Bis-40E9-L5H7 (bispecific antibody)
heavy 1: not shown
heavy 2: EVQLVQSGAEVKKPGASVKVSCKASGYTFTSYVIHWVRQAPGQGLEWMGYFNPYNDGTKYNEEFKGRVTLTSDKSTSTAYMELRSLRSDDTAVYYCARGGVRRYFDVWGQGTTVTVSSASTKGPSVFPLAPSSKSTSGGTAALGCLVKDYFPEPVTVSWNSGALTSGVHTFPAVLQSSGLYSLSSVVTVPSSSLGTQTYICNVNHKPSNTKVDKKVEPKSCGGGGSGGGGSEVQLVQSGAEVKKPGSSVKVSCKASGYTFSSYVIHWVRQAPGQCLEWMGYINPGNGVIKYNEKFKGRVTLTSDKSTSTAYMELSSLRSEDTAVYYCARDSYSSYDGFAYWGQGTLVTVSSGGGGSGGGGSGGGGSGGGGSEIVLTQSPDFQSVTPKEKVTITCSASSSVSYMHWYQQKPDQSPKRLIYDTSKLASGVPSRFSGSGSGTDFTLTINSLEAEDAATYYCQQWRSSPPTFGCGTKVEIKGGGGSGGGGSDKTHTCPPCPAPEAAGGPSVFLFPPKPKDTLMISRTPEVTCVVVDVSHEDPEVKFNWYVDGVEVHNAKTKPREEQYNSTYRVVSVLTVLHQDWLNGKEYKCKVSNKALPAPIEKTISKAKGQPREPQVCTLPPSREEMTKNQVSLSCAVKGFYPSDIAVEWESNGQPENNYKTTPPVLDSDGSFFLVSKLTVDKSRWQQGNVFSCSVMHEALHNHYTQKSLSLSPGK
light: DIQMTQSPSSLSASVGDRVTITCRASQDIGSNLNWLQQKPGKAIKRLIYATFGLDSGVPSRFSGSRSGTDFTLTISSLQPEDFATYYCQQYASFPYTFGGGTKVEIKRTVAAPSVFIFPPSDEQLKSGTASVVCLLNNFYPREAKVQWKVDNALQSGNSQESVTEQDSKDSTYSLSSTLTLSKADYEKHKVYACEVTHQGLSSPVTKSFNRGEC
notes: Fab-scFv-Fab format with LALA mutations; copies: 1 + 1 + 2
Ratio of EC50 (relative to ATG-Bis-40E9) (GPRC5D on MM.1S cells [3]): 1.14 ratio
Ratio of Top MFI (relative to ATG-Bis-40E9) (GPRC5D on MM.1S cells [3]): 0.989 ratio
Ratio of IC50 (relative to ATG-Bis-40E9), MM.1S cytotoxicity (GPRC5D on MM.1S cells [4]): 9.82 ratio
Ratio of Top cytotoxicity (relative to ATG-Bis-40E9), MM.1S cytotoxicity (GPRC5D on MM.1S cells [4]): 0.99 ratio
Ratio of EC50 (relative to ATG-Bis-40E9), luciferase assay on MM.1S (GPRC5D on MM.1S cells [5]): 18 ratio
Ratio of Top RLU (relative to ATG-Bis-40E9), luciferase assay on MM.1S (GPRC5D on MM.1S cells [5]): 1.38 ratio

B17: Bis-40E9-L2H9 (bispecific antibody)
heavy 1: not shown
heavy 2: B16 heavy 2 with G285Y, N286S, G287D, D330E, Y332F, S333Y, R462S, S464N
light: B16 light
notes: Fab-scFv-Fab format with LALA mutations
Ratio of EC50 (relative to ATG-Bis-40E9) (GPRC5D on MM.1S cells [3]): 0.926 ratio
Ratio of Top MFI (relative to ATG-Bis-40E9) (GPRC5D on MM.1S cells [3]): 0.874 ratio
Ratio of IC50 (relative to ATG-Bis-40E9), MM.1S cytotoxicity (GPRC5D on MM.1S cells [4]): 87.7 ratio
Ratio of Top cytotoxicity (relative to ATG-Bis-40E9), MM.1S cytotoxicity (GPRC5D on MM.1S cells [4]): 0.87 ratio
Ratio of EC50 (relative to ATG-Bis-40E9), luciferase assay on MM.1S (GPRC5D on MM.1S cells [5]): 96.4 ratio
Ratio of Top RLU (relative to ATG-Bis-40E9), luciferase assay on MM.1S (GPRC5D on MM.1S cells [5]): 0.28 ratio

The next lines start with results.

binding result [1]: binds
binding result [2]: binds
B1: Bis-40E9-L2H9 (bispecific antibody)
VH: B2 VH 1
VL: B2 VL 1
scFv: B9 scFv with D31S, N55S, D99E, Y101F
notes: L234A/L235A

binding result [1]: binds
binding result [2]: binds
B4: Bis-40E9-L2H6 (bispecific antibody)
VH: B2 VH 1
VL: B2 VL 1
scFv: B9 scFv with D31S, D99E, Y101F, Y102S
notes: L234A/L235A

binding result [1]: binds
binding result [2]: binds
B6: Bis-108+147-N31Y.L (bispecific antibody, V domains shown)
VH 1: B2 VH 1
VL 1: B2 VL 1
VH 2: B2 VH 2
VL 2: B2 VL 2 with N31Y, T32S
notes: as for B2

binding result [1]: binds
binding result [2]: binds
B10: Bis-40E9-L2H10 (bispecific antibody)
VH: B2 VH 1
VL: B2 VL 1
scFv: B9 scFv with D31S, D105E, G106A
notes: L234A/L235A

binding result [1]: binds
binding result [2]: binds
B12: Bis-40E9-L2H7 (bispecific antibody)
VH: B2 VH 1
VL: B2 VL 1
scFv: B9 scFv with D31S, Y54G, D56G, Y102S
notes: L234A/L235A

binding result [1]: binds
binding result [2]: binds
B13: Bis-40E9-L2H14 (bispecific antibody)
VH: B2 VH 1
VL: B2 VL 1
scFv: B9 scFv with D31S, D99E
notes: L234A/L235A

binding result [1]: binds
binding result [2]: binds
B14: Bis-40E9-L5H7 (bispecific antibody)
VH: B2 VH 1
VL: B2 VL 1
scFv: B9 scFv with D31S, Y54G, D56G, Y102S, S231R, N233S
notes: L234A/L235A

Ratio of EC50 (relative to ATG-Bis-40E9) (GPRC5D on MM.1S cells [3]): 0.824 ratio
Ratio of Top MFI (relative to ATG-Bis-40E9) (GPRC5D on MM.1S cells [3]): 0.877 ratio
Ratio of Top RLU (relative to ATG-Bis-40E9), luciferase assay on MM.1S (GPRC5D on MM.1S cells [5]): 0.04 ratio
B15: Bis-40E9-L2H6 (bispecific antibody)
heavy 1: not shown
heavy 2: B16 heavy 2 with G285Y, G287D, D330E, Y332F, R462S, S464N
light: B16 light
notes: as for B17
Ratio of Top cytotoxicity (relative to ATG-Bis-40E9), MM.1S cytotoxicity (GPRC5D on MM.1S cells [4]): 0.06 ratio

Ratio of EC50 (relative to ATG-Bis-40E9) (GPRC5D on MM.1S cells [3]): 1.15 ratio
Ratio of Top MFI (relative to ATG-Bis-40E9) (GPRC5D on MM.1S cells [3]): 1.02 ratio
Ratio of EC50 (relative to ATG-Bis-40E9), luciferase assay on MM.1S (GPRC5D on MM.1S cells [5]): 10.2 ratio
Ratio of Top RLU (relative to ATG-Bis-40E9), luciferase assay on MM.1S (GPRC5D on MM.1S cells [5]): 0.71 ratio
B18: Bis-40E9-L2H10 (bispecific antibody)
heavy 1: not shown
heavy 2: B16 heavy 2 with G285Y, G287D, S333Y, D336E, G337A, R462S, S464N
light: B16 light
notes: as for B16
Ratio of IC50 (relative to ATG-Bis-40E9), MM.1S cytotoxicity (GPRC5D on MM.1S cells [4]): 18.4 ratio
Ratio of Top cytotoxicity (relative to ATG-Bis-40E9), MM.1S cytotoxicity (GPRC5D on MM.1S cells [4]): 0.96 ratio
